Assay results: patent US20240425590A1 (VIBRANT PHARMA, published 2024)

T1: human carcinoembryonic antigen-related cell adhesion molecule 5 (human, UniProt P06731 35-702)
T1 sequence (looked up): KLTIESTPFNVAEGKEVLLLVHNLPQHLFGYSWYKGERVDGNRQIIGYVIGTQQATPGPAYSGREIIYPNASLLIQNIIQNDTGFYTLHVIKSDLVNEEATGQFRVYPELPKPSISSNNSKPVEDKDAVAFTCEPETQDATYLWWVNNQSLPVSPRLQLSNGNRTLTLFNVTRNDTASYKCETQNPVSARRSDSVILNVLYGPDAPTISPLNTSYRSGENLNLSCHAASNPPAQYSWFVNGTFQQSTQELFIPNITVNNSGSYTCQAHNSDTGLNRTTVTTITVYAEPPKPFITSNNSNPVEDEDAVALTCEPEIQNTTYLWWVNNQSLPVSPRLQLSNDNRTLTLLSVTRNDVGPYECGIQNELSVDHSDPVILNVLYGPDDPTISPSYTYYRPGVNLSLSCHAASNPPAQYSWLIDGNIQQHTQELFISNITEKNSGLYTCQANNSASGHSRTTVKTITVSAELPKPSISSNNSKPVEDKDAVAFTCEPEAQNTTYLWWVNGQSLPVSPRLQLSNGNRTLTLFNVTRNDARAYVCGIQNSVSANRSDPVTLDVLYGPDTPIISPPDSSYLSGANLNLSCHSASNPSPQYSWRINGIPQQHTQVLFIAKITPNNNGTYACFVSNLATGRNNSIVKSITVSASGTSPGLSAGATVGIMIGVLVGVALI


Target: T1, human carcinoembryonic antigen-related …
Assay: cell-based or functional assay

Row | Binder | EC50 (pM) of TCB-mediated killing of LS-174T target cells co-cultured with human PBMCs (viability read-out)
1 | 4N1-TA1+4O1-CEA (bispecific antibody, human IgG4 S228P, F234A L235A) chain 1: ESKYGPPCPPCPAPEAAGGPSVFLFPPKPKDTLMISRTPEVTCVVVDVSQEDPEVQFNWYVDGVEVHNAKTKPREEQFNSTYRVVSVLTVLHQDWLNGKEYKCKVSNKGLPSSIEKTISKAKGQPREPQVYTLPPCQEEMTKNQVSLWCLVKGFYPSDIAVEWESNGQPENNYKTTPPVLDSDGSFFLYSRLTVDKSRWQEGNVFSCSVMHEALHNHYTQKSLSLSLGGGGSGGGGSEVKLLESGGGLVQPKGSLKLSCAASGFTFNTYAMNWVRQAPGKGLEWVARIRSKYNNYATYYADSVKDRFTISRDDSQSILYLQMNNLKTEDTAMYYCVRHGNFGNSYVSWFAYWGQGTLVTVSSGGGGSGGGGSGGGGSQAVVTQESALTTSPGETVTLTCRSSTGAVTTSNYANWVQEKPDHLFTGLIGGTNKRAPGVPARFSGSLIGDKAALTITGAQTEDEAIYFCALWYSNLWVFGGGTKVEIKRT chain 2: ESKYGPPCPPCPAPEAAGGPSVFLFPPKPKDTLMISRTPEVTCVVVDVSQEDPEVQFNWYVDGVEVHNAKTKPREEQFNSTYRVVSVLTVLHQDWLNGKEYKCKVSNKGLPSSIEKTISKAKGQPREPQVCTLPPSQEEMTKNQVSLSCAVKGFYPSDIAVEWESNGQPENNYKTTPPVLDSDGSFFLVSRLTVDKSRWQEGNVFSCSVMHEALHNRFTQKSLSLSLGGGGSGGGGSEVQLVESGGGFVQAGESLTLSCTSSTLTFTPYRMAWYRQAPGKQRDLVADISSGDGRTTNYADFAKGRFTISRDNIKNTVFLRMTNLKPEDTAVYYCNTFVSFVGIARSWGQGTQVTVSS | 6.7 pM
2 | TA1-4N1+CEA-4O1 (bispecific antibody, human IgG4 S228P, F234A L235A) chain 1: EVKLLESGGGLVQPKGSLKLSCAASGFTFNTYAMNWVRQAPGKGLEWVARIRSKYNNYATYYADSVKDRFTISRDDSQSILYLQMNNLKTEDTAMYYCVRHGNFGNSYVSWFAYWGQGTLVTVSSGGGGSGGGGSGGGGSQAVVTQESALTTSPGETVTLTCRSSTGAVTTSNYANWVQEKPDHLFTGLIGGTNKRAPGVPARFSGSLIGDKAALTITGAQTEDEAIYFCALWYSNLWVFGGGTKVEIKRTESKYGPPCPPCPAPEAAGGPSVFLFPPKPKDTLMISRTPEVTCVVVDVSQEDPEVQFNWYVDGVEVHNAKTKPREEQFNSTYRVVSVLTVLHQDWLNGKEYKCKVSNKGLPSSIEKTISKAKGQPREPQVYTLPPCQEEMTKNQVSLWCLVKGFYPSDIAVEWESNGQPENNYKTTPPVLDSDGSFFLYSRLTVDKSRWQEGNVFSCSVMHEALHNHYTQKSLSLSL chain 2: EVQLVESGGGFVQAGESLTLSCTSSTLTFTPYRMAWYRQAPGKQRDLVADISSGDGRTTNYADFAKGRFTISRDNIKNTVFLRMTNLKPEDTAVYYCNTFVSFVGIARSWGQGTQVTVSSESKYGPPCPPCPAPEAAGGPSVFLFPPKPKDTLMISRTPEVTCVVVDVSQEDPEVQFNWYVDGVEVHNAKTKPREEQFNSTYRVVSVLTVLHQDWLNGKEYKCKVSNKGLPSSIEKTISKAKGQPREPQVCTLPPSQEEMTKNQVSLSCAVKGFYPSDIAVEWESNGQPENNYKTTPPVLDSDGSFFLVSRLTVDKSRWQEGNVFSCSVMHEALHNRFTQKSLSLSL | 3.1 pM
3 | CEA-4N1+4O1-TA1 (bispecific antibody, human IgG4 S228P, F234A L235A) chain 1: EVQLVESGGGFVQAGESLTLSCTSSTLTFTPYRMAWYRQAPGKQRDLVADISSGDGRTTNYADFAKGRFTISRDNIKNTVFLRMTNLKPEDTAVYYCNTFVSFVGIARSWGQGTQVTVSSESKYGPPCPPCPAPEAAGGPSVFLFPPKPKDTLMISRTPEVTCVVVDVSQEDPEVQFNWYVDGVEVHNAKTKPREEQFNSTYRVVSVLTVLHQDWLNGKEYKCKVSNKGLPSSIEKTISKAKGQPREPQVYTLPPCQEEMTKNQVSLWCLVKGFYPSDIAVEWESNGQPENNYKTTPPVLDSDGSFFLYSRLTVDKSRWQEGNVFSCSVMHEALHNHYTQKSLSLSL chain 2: ESKYGPPCPPCPAPEAAGGPSVFLFPPKPKDTLMISRTPEVTCVVVDVSQEDPEVQFNWYVDGVEVHNAKTKPREEQFNSTYRVVSVLTVLHQDWLNGKEYKCKVSNKGLPSSIEKTISKAKGQPREPQVCTLPPSQEEMTKNQVSLSCAVKGFYPSDIAVEWESNGQPENNYKTTPPVLDSDGSFFLVSRLTVDKSRWQEGNVFSCSVMHEALHNRFTQKSLSLSLGGGGSGGGGSEVKLLESGGGLVQPKGSLKLSCAASGFTFNTYAMNWVRQAPGKGLEWVARIRSKYNNYATYYADSVKDRFTISRDDSQSILYLQMNNLKTEDTAMYYCVRHGNFGNSYVSWFAYWGQGTLVTVSSGGGGSGGGGSGGGGSQAVVTQESALTTSPGETVTLTCRSSTGAVTTSNYANWVQEKPDHLFTGLIGGTNKRAPGVPARFSGSLIGDKAALTITGAQTEDEAIYFCALWYSNLWVFGGGTKVEIKRT | 9 pM
4 | 4N1-TA1+CEA-4O1 (bispecific antibody, human IgG4 S228P, F234A L235A) chain 1: ESKYGPPCPPCPAPEAAGGPSVFLFPPKPKDTLMISRTPEVTCVVVDVSQEDPEVQFNWYVDGVEVHNAKTKPREEQFNSTYRVVSVLTVLHQDWLNGKEYKCKVSNKGLPSSIEKTISKAKGQPREPQVYTLPPCQEEMTKNQVSLWCLVKGFYPSDIAVEWESNGQPENNYKTTPPVLDSDGSFFLYSRLTVDKSRWQEGNVFSCSVMHEALHNHYTQKSLSLSLGGGGSGGGGSEVKLLESGGGLVQPKGSLKLSCAASGFTFNTYAMNWVRQAPGKGLEWVARIRSKYNNYATYYADSVKDRFTISRDDSQSILYLQMNNLKTEDTAMYYCVRHGNFGNSYVSWFAYWGQGTLVTVSSGGGGSGGGGSGGGGSQAVVTQESALTTSPGETVTLTCRSSTGAVTTSNYANWVQEKPDHLFTGLIGGTNKRAPGVPARFSGSLIGDKAALTITGAQTEDEAIYFCALWYSNLWVFGGGTKVEIKRT chain 2: EVQLVESGGGFVQAGESLTLSCTSSTLTFTPYRMAWYRQAPGKQRDLVADISSGDGRTTNYADFAKGRFTISRDNIKNTVFLRMTNLKPEDTAVYYCNTFVSFVGIARSWGQGTQVTVSSESKYGPPCPPCPAPEAAGGPSVFLFPPKPKDTLMISRTPEVTCVVVDVSQEDPEVQFNWYVDGVEVHNAKTKPREEQFNSTYRVVSVLTVLHQDWLNGKEYKCKVSNKGLPSSIEKTISKAKGQPREPQVCTLPPSQEEMTKNQVSLSCAVKGFYPSDIAVEWESNGQPENNYKTTPPVLDSDGSFFLVSRLTVDKSRWQEGNVFSCSVMHEALHNRFTQKSLSLSL | 6 pM
5 | CEA-4N1+TA1-4O1 (bispecific antibody, human IgG4 S228P, F234A L235A) chain 1: EVQLVESGGGFVQAGESLTLSCTSSTLTFTPYRMAWYRQAPGKQRDLVADISSGDGRTTNYADFAKGRFTISRDNIKNTVFLRMTNLKPEDTAVYYCNTFVSFVGIARSWGQGTQVTVSSESKYGPPCPPCPAPEAAGGPSVFLFPPKPKDTLMISRTPEVTCVVVDVSQEDPEVQFNWYVDGVEVHNAKTKPREEQFNSTYRVVSVLTVLHQDWLNGKEYKCKVSNKGLPSSIEKTISKAKGQPREPQVYTLPPCQEEMTKNQVSLWCLVKGFYPSDIAVEWESNGQPENNYKTTPPVLDSDGSFFLYSRLTVDKSRWQEGNVFSCSVMHEALHNHYTQKSLSLSL chain 2: EVKLLESGGGLVQPKGSLKLSCAASGFTFNTYAMNWVRQAPGKGLEWVARIRSKYNNYATYYADSVKDRFTISRDDSQSILYLQMNNLKTEDTAMYYCVRHGNFGNSYVSWFAYWGQGTLVTVSSGGGGSGGGGSGGGGSQAVVTQESALTTSPGETVTLTCRSSTGAVTTSNYANWVQEKPDHLFTGLIGGTNKRAPGVPARFSGSLIGDKAALTITGAQTEDEAIYFCALWYSNLWVFGGGTKVEIKRTESKYGPPCPPCPAPEAAGGPSVFLFPPKPKDTLMISRTPEVTCVVVDVSQEDPEVQFNWYVDGVEVHNAKTKPREEQFNSTYRVVSVLTVLHQDWLNGKEYKCKVSNKGLPSSIEKTISKAKGQPREPQVCTLPPSQEEMTKNQVSLSCAVKGFYPSDIAVEWESNGQPENNYKTTPPVLDSDGSFFLVSRLTVDKSRWQEGNVFSCSVMHEALHNRFTQKSLSLSL | 0.005 pM
6 | CEA-4N1-TA1+4O1 (bispecific antibody, human IgG4 S228P, F234A L235A) chain 1: EVQLVESGGGFVQAGESLTLSCTSSTLTFTPYRMAWYRQAPGKQRDLVADISSGDGRTTNYADFAKGRFTISRDNIKNTVFLRMTNLKPEDTAVYYCNTFVSFVGIARSWGQGTQVTVSSESKYGPPCPPCPAPEAAGGPSVFLFPPKPKDTLMISRTPEVTCVVVDVSQEDPEVQFNWYVDGVEVHNAKTKPREEQFNSTYRVVSVLTVLHQDWLNGKEYKCKVSNKGLPSSIEKTISKAKGQPREPQVYTLPPCQEEMTKNQVSLWCLVKGFYPSDIAVEWESNGQPENNYKTTPPVLDSDGSFFLYSRLTVDKSRWQEGNVFSCSVMHEALHNHYTQKSLSLSLGGGGSGGGGSEVKLLESGGGLVQPKGSLKLSCAASGFTFNTYAMNWVRQAPGKGLEWVARIRSKYNNYATYYADSVKDRFTISRDDSQSILYLQMNNLKTEDTAMYYCVRHGNFGNSYVSWFAYWGQGTLVTVSSGGGGSGGGGSGGGGSQAVVTQESALTTSPGETVTLTCRSSTGAVTTSNYANWVQEKPDHLFTGLIGGTNKRAPGVPARFSGSLIGDKAALTITGAQTEDEAIYFCALWYSNLWVFGGGTKVEIKRT chain 2: ESKYGPPCPPCPAPEAAGGPSVFLFPPKPKDTLMISRTPEVTCVVVDVSQEDPEVQFNWYVDGVEVHNAKTKPREEQFNSTYRVVSVLTVLHQDWLNGKEYKCKVSNKGLPSSIEKTISKAKGQPREPQVCTLPPSQEEMTKNQVSLSCAVKGFYPSDIAVEWESNGQPENNYKTTPPVLDSDGSFFLVSRLTVDKSRWQEGNVFSCSVMHEALHNRFTQKSLSLSL | 0.4 pM
